According to the supplement of paper PMC9732359:
± gives the uncertainty stated by the source.

Experiment: protein stability index of a GFP-peptide fusion (yeast GPS) (PSI 1-4); higher = more stable; sorted into four equal gates, so the index is relative within each strain
Outline: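 Plasmids isolated from each sorting gate were PCR-amplified and Illumina-sequenced, and barcodes assigned the reads to strains. The gates, four of equal size, were set by GFP/Cherry fluorescence ratio on mid-log cultures in leucine-free medium. These cultures were yeast carrying a pooled library of tiled 17-residue yeast protein peptides fused downstream of GFP on a plasmid that also expresses Cherry. The protein stability index is the sum of every gate's read frequency times its gate number.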

Row | Sequence | protein stability index (doa10∆) | protein stability index (pdr5∆) | protein stability index (san1∆) | protein stability index (ubr1∆)
1 | SDLGTVVFDSNEAPPKT [YMR153W/NUP53] | 3.17 ± 0.057 | 3.13 ± 0.051 | 2.6 ± 0.076 | 2.58 ± 0.069
2 | DEIYIPINGNEAESQWY [CSI1] | 2.63 ± 0.065 | 3.13 ± 0.06 | 3.11 ± 0.07 | 3.31 ± 0.064
3 | STLLCTDLESKSRMINF [SNU114] | 2.62 ± 0.05 | 2.96 ± 0.052 | 2.67 ± 0.044 | 2.79 ± 0.038
4 | YSIPHPSENLLNIRIQT [RPC19] | 2.1 ± 0.098 | 2.21 ± 0.078 | 2.65 ± 0.12 | 2.38 ± 0.11
5 | RLISSKMPGGFTITVAR [FAS2] | 1.65 ± 0.038 | 2 ± 0.063 | 1.52 ± 0.073 | 1.92 ± 0.044
6 | EENWDDVEVDDDFTNEL [SEM1] | – | 3.13 ± 0.22 | 3.05 ± 0.2 | 3.3 ± 0.19
7 | NRKIYQFTLYDRELNEV [SMC3] | – | 2.62 ± 0.11 | 2.76 ± 0.13 | 2.98 ± 0.095
8 | IVEADEKKGIVQASVTS [RET1] | 2.66 ± 0.15 | 2.6 ± 0.11 | – | 1.7 ± 0.086
9 | IPSSKYAYMMNSQSPRG [YLR018C/POM34] | 2.78 ± 0.062 | 2.69 ± 0.066 | 2.75 ± 0.044 | 2.75 ± 0.045
10 | VTVFLFMLILALFVFYS [COB] | 2.32 ± 0.067 | 1.8 ± 0.042 | 2.27 ± 0.057 | 1.99 ± 0.039
11 | MESIGSDILTAEKMRGN [RRP4] | 3.1 ± 0.13 | 3.43 ± 0.12 | 3.14 ± 0.093 | 3.34 ± 0.092
12 | ANGTVVSFIKNGEEIVG [MTR3] | 1.34 ± 0.07 | 1.6 ± 0.13 | 1.45 ± 0.21 | 1.91 ± 0.11
13 | LGSLTVEDYLSSVTSDS [RPC82] | 2.95 ± 0.11 | 3.02 ± 0.076 | 2.19 ± 0.22 | 3.2 ± 0.074
14 | HECRLRDMTYSAPIYVD [RET1] | 2.04 ± 0.087 | 1.67 ± 0.099 | 2.01 ± 0.21 | 1.91 ± 0.061
15 | AAEPMDSKMIQDLSRNT [SNU114] | 2.93 ± 0.18 | – | 3.18 ± 0.19 | –
16 | IELSDGSTFKVNQEFIF [YJL039C/NUP192] | 3.23 ± 0.088 | 3.07 ± 0.059 | 2.78 ± 0.061 | 3.13 ± 0.064
17 | NEAPPKTSLADWQKEDG [YMR153W/NUP53] | 2.74 ± 0.13 | 3.14 ± 0.1 | 2.56 ± 0.16 | 2.93 ± 0.15
18 | IYDFHKMENLMRLIKRV [YJL039C/NUP192] | 2.58 ± 0.097 | 2.67 ± 0.079 | 2.3 ± 0.062 | 2.57 ± 0.073
19 | VKPLESSAKRSKNTAVS [SRP72] | 2.7 ± 0.073 | 2.92 ± 0.11 | 2.21 ± 0.096 | 2.63 ± 0.05
20 | SKVSIEQRKEAAEFVLA [RPN7] | 2.12 ± 0.13 | 2.49 ± 0.15 | 2.45 ± 0.09 | 2.45 ± 0.06
21 | GKTLAFVIPILIKMSRS [PRP28] | 1.38 ± 0.071 | 1.62 ± 0.079 | 1.22 ± 0.19 | –
22 | KGAATGKGRQSAKAELE [PRE10] | 1.24 ± 0.088 | 1.38 ± 0.079 | 1.45 ± 0.29 | 1.22 ± 0.064
23 | LVQMYIGEGAKLVRDAF [RPT5] | – | – | 2.51 ± 0.27 | –
24 | LLEQDTSTEKLYKLNDK [PRE9] | 2.99 ± 0.062 | 3.08 ± 0.07 | 2.91 ± 0.058 | 2.91 ± 0.056
25 | ERFQVMVLRKQKRYTVK [RPL14A] | 2.37 ± 0.12 | 2.19 ± 0.1 | 2.21 ± 0.24 | 2.71 ± 0.11

Row | Sequence | protein stability index (doa10∆) | protein stability index (pdr5∆) | protein stability index (san1∆) | protein stability index (ubr1∆)
26 | ALNDVYLDADVAKLANW [YML031W/NDC1] | 2.85 ± 0.2 | 3.52 ± 0.22 | 3.67 ± 0.22 | 3.73 ± 0.24
27 | EDITEPKPDKPSGRTRG [ESC2] | 3.07 ± 0.15 | 2.96 ± 0.14 | 3.07 ± 0.11 | 3.26 ± 0.1
28 | FGNSSPQLTFTHVANFM [YML103C/NUP188] | 2.97 ± 0.096 | 3.03 ± 0.08 | 3.04 ± 0.054 | 2.92 ± 0.052
29 | VNGAKNLVVSGPPQSLY [FAS1] | 2.07 ± 0.1 | 1.78 ± 0.066 | 2.03 ± 0.088 | 2.2 ± 0.052
30 | NGVIIAADNLGSYGSLL [PRE4] | 3.05 ± 0.13 | 3.15 ± 0.13 | 2.92 ± 0.21 | 3.12 ± 0.2
31 | DSEKHIDFAPTSPFGGA [RPS9A] | 2.6 ± 0.06 | 2.65 ± 0.06 | 2.69 ± 0.068 | 2.68 ± 0.041
32 | LAHVDQIVDIRNKRAVQ [YJL039C/NUP192] | 2.35 ± 0.13 | 2.55 ± 0.12 | 2.76 ± 0.12 | 2.71 ± 0.13
33 | QMMARMAQTATQQQPGA [SRP54] | 2.34 ± 0.059 | 2.36 ± 0.067 | 2.35 ± 0.067 | 2.27 ± 0.044
34 | VKVLAATNRVDVLDPAL [RPT5] | 3.08 ± 0.099 | 2.84 ± 0.1 | 3.02 ± 0.075 | 2.89 ± 0.071
35 | ATNANATTDQEGDIHLE [PRE10] | 3.35 ± 0.23 | 3.39 ± 0.14 | 3.33 ± 0.036 | 3.11 ± 0.12
36 | SAKEIAKASGCDDESGD [MCD1] | 2.19 ± 0.094 | 1.8 ± 0.15 | 2.62 ± 0.12 | 2.86 ± 0.14
37 | SLAGFHKVQTKLTRELE [RPS7A] | 2.4 ± 0.065 | 1.98 ± 0.06 | 1.57 ± 0.13 | 2.04 ± 0.058
38 | EGNAGGDQKTSENRNNI [YOR098C/NUP1] | – | 3.6 ± 0.17 | 3.19 ± 0.17 | 3.36 ± 0.074
39 | EYKLATYGVPGSENKRG [NUT1] | 3.36 ± 0.086 | 3.25 ± 0.093 | 3.33 ± 0.046 | 2.96 ± 0.065
40 | EAVKQAAKIIYLAHEDN [PRE10] | 2.75 ± 0.19 | 3.02 ± 0.12 | 3.3 ± 0.22 | 2.55 ± 0.14
41 | PQQNKTPFSFGTANNNS [YJL041W/NSP1] | 3.28 ± 0.046 | 3.2 ± 0.038 | 3.12 ± 0.035 | 3.05 ± 0.034
42 | VLAHRIGLVPLKVDPDM [RPC40] | 2.94 ± 0.27 | – | – | –
43 | TKVLNMKPSEILSLIEE [SMC2] | 2.86 ± 0.23 | 3.3 ± 0.17 | 3 ± 0.24 | 2.9 ± 0.11
44 | NMGSLLGLCLVIQIVTG [COB] | 2.67 ± 0.06 | 2.58 ± 0.053 | 2.59 ± 0.061 | 3 ± 0.034
45 | KYRQTKLSKEERAARVA [RPL5] | 2.7 ± 0.11 | 3.05 ± 0.071 | 2.97 ± 0.13 | 2.65 ± 0.07
46 | FHFRAPSRIFYKALRGM [RPL16A] | 1.97 ± 0.24 | 2.4 ± 0.18 | 2.27 ± 0.14 | 2.43 ± 0.14
47 | ARQFGYVILTTSAGIMD [RPS22A] | 1.37 ± 0.048 | 1.33 ± 0.045 | 1.17 ± 0.094 | 1.25 ± 0.037
48 | EVNSLLLQVNKTFCEDP [GRR1] | 3.27 ± 0.099 | 3.34 ± 0.066 | 3.22 ± 0.054 | 3.24 ± 0.044
49 | SIVLLLLSQFGIKVLPE [YML103C/NUP188] | 1.8 ± 0.096 | 1.28 ± 0.085 | 1.18 ± 0.13 | 1.42 ± 0.033
50 | SEENIGSGLLKLSEIIL [SWI1] | 3.2 ± 0.074 | 3.02 ± 0.066 | 2.92 ± 0.048 | 3.37 ± 0.06
